# In patent publication US20210180067, “NUCLEIC ACID APTAMERS” (UNIVERSITY OF IOWA RESEARCH FOUNDATION, published 2021):
# B1: Tr-8 (ssRNA)
# RNA: GGGAGGACGAUGCGGGCCGUUGUUGUGUGCCGCCCCAGACGACUCGCCCGA
# modifications: 2'-F C and U
# B2: Tr-1 (ssRNA)
# RNA: GGGAGGACGAUGCGGUCCUGUCGUCUGUUCGUCCCCAGACGACUCGCCCGA
# modifications: 2'-F C and U
# B3: C-248 (ssRNA)
# RNA: GGGAGGACGAUGCGGCACACCGAAAUGUCCCGACUCAGACGACUCGCCCGA
# modifications: 2'-F C and U
# B4: Tr-11 (ssRNA)
# RNA: GGGAGGACGAUGCGGAUUCUGGUUACUGGCCGCCCCAGACGACUCGCCCGA
# modifications: 2'-F C and U
# B5: Tr-7 (ssRNA)
# RNA: GGGAGGACGAUGCGGUGAGUCGUUCCCUUCGUCCCCAGACGACUCGCCCGA
# modifications: 2'-F C and U
# B6: Tr-6 (ssRNA)
# RNA: GGGAGGACGAUGCGGCGUUUCCUCUGGUUCGUCCCCAGACGACUCGCCCGA
# modifications: 2'-F C and U
# Assays:
# [1] = target: T1, CD25 (IL-2 receptor alpha, IL2RA) (Homo sapiens, UniProt P01589 P01589:22-240); test: pulldown; 100 nM RNA, CD25 Dynabeads, 2 mM CaCl2, 37 C, RT-qPCR; prefers unoccupied CD25; conditions: tags: His-tag; Thermo Fisher
# T1 sequence (P01589 22-240, one chain of several): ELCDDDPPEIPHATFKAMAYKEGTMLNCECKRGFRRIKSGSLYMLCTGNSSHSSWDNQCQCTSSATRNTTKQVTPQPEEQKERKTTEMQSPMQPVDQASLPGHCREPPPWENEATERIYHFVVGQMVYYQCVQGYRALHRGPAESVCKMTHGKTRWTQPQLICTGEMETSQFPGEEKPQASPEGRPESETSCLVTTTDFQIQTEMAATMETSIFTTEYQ
# Experimental: (§1) Aptamer binding to recombinant CD25 protein or CD25-IL2 receptor-ligand complex-coated Dynabeads was measured as follows. Streptavidin-coated Dynabeads, antibody-coupling kit, and Dynabeads for His-tagged protein binding were obtained from Thermo Fisher. Histidine-tagged recombinant human CD25 (Thermo Fisher, USA) was coated onto His-tag-binding Dynabeads (Thermo Fisher, USA). Protein coated beads were blocked with binding buffer [HEPES-buffered saline with 2 mM CaCl2) containing 0.1 mg/ml BSA and tRNA. In cases where CD25-IL2 complexes were tested, equimolar amounts of IL2 was incubated with CD25-coated beads for 30 minutes at 37 degrees Celsius and the unbound IL2 was washed away. Folded aptamers were then incubated with CD25- or CD25-IL2-coated beads at a concentration of 100 nM for 30 minutes at 37 degrees Celsius under rotation. Beads were then washed thrice with binding buffer at 37 degrees Celsius. Bound RNA aptamers were extracted using Trizol spiked with M12-23 reference control and were quantified using SyBR green-based RT-qPCR assay. The bead-bound SEL2 aptamers were normalized to M12-23 reference control before further analysis. The values obtained for Treg-binding aptamers were normalized to the negative control aptamer, C-248, and plotted. Nucleotides corresponding to the N20 region are underlined and italicized.
# [2] = target: T1, CD25 (IL-2 receptor alpha, IL2RA); test: pulldown; 100 nM RNA, CD25 Dynabeads, HEPES saline 2 mM CaCl2, BSA, tRNA, 37 C, RT-qPCR; greater than C-248; conditions: tags: His-tag; Thermo Fisher
# Experimental: as §1
# [3] = target: T2, CD25 (IL2RA)-IL2 complex (Homo sapiens, UniProt P01589;P60568 P01589:22-240,P60568:21-153); test: pulldown; binding increased vs unoccupied CD25; 2 mM CaCl2, 37 C, RT-qPCR; correlates with IL2 occupancy (R2=0.724); conditions: tags: CD25 His-tagged, Thermo Fisher
# T2 sequence (P01589 22-240, chain 1 of 2): as the sequence (P01589 22-240, one chain of several) above
# T2 sequence (P60568 21-153, chain 2 of 2): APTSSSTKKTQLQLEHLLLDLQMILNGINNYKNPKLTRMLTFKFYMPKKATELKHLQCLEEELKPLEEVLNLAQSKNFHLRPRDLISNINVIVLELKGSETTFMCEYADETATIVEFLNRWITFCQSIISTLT
# Experimental: as §1
# [4] = target: T1, CD25 (IL-2 receptor alpha, IL2RA); test: pulldown; negative control used for normalisation; 2 mM CaCl2, 37 C, RT-qPCR; conditions: tags: His-tag; Thermo Fisher
# Experimental: as §1
# [5] = target: T1, CD25 (IL-2 receptor alpha, IL2RA); test: pulldown; 100 nM RNA, CD25 Dynabeads, 2 mM CaCl2, 37 C, RT-qPCR; greater than C-248; conditions: tags: His-tag; Thermo Fisher
# Experimental: as §1
# [6] = target: T2, CD25 (IL2RA)-IL2 complex; test: pulldown; similar binding to unoccupied CD25 and complex; 2 mM CaCl2, 37 C, RT-qPCR; conditions: tags: CD25 His-tagged, Thermo Fisher
# Experimental: as §1
# [7] = target: T2, CD25 (IL2RA)-IL2 complex; test: pulldown; binding increased vs unoccupied CD25; 2 mM CaCl2, 37 C, RT-qPCR; correlates with IL2 occupancy (R2=0.661); conditions: tags: CD25 His-tagged, Thermo Fisher
# Experimental: as §1
binder,measurement,setting,value
B1,binding result,[1],binds
B2,binding result,[2],binds
same,binding result,[3],binds
B3,binding result,[4],no binding
B4,binding result,[5],binds
same,binding result,[6],binds
B5,binding result,[5],binds
same,binding result,[7],binds
B6,binding result,[1],binds
